Source: patent publication US20210002376A1 (UNIVERSIT T STUTTGART, published 2021)
Where two headings read alike, the source gives them in different places.

Assays:
HER3 (on tumor cells) [1] = target: T1, HER3 (on tumor cells) (UniProt P21860 20-1342, limits assumed); assay: flow cytometry on MCF-7 cells
T1 construct: whole, on cells; also called HER3 on MCF-7, SKBR-3 (SKBR3) and FaDu cells

HER3 (on tumor cells) [2] = target: T1, HER3 (on tumor cells); assay: flow cytometry on SKBR-3 cells
HER3 (on tumor cells) [3] = target: T1, HER3 (on tumor cells); assay: flow cytometry on FaDu cells
HER3 (on tumor cells) [4] = target: T1, HER3 (on tumor cells); assay: flow cytometry on SKBR-3 cells; remark: listed apart in the source
HER3 (on tumor cells) [5] = target: T1, HER3 (on tumor cells); assay: flow cytometry on MCF-7 cells; remark: listed apart in the source
HER3 (on tumor cells) [6] = target: T1, HER3 (on tumor cells); assay: flow cytometry on FaDu cells; remark: listed apart in the source
HER3-Fc fusion protein [7] = target: T2, HER3-Fc fusion protein (UniProt P21860 21-643); assay: ELISA, coated HER3-Fc, anti-human Fab-HRP
T2 construct: range 21-643; Coated antigen in ELISA; not shown: Fc part of the fusion, not described

CD3 (on Jurkat cells) = target: T3, CD3 (on Jurkat cells) (UniProt P07766 23-207); assay: flow cytometry on CD3-expressing Jurkat cells
T3 construct: whole, on cells; CD3 is a complex of several chains; only CD3 is printed; also called CD3-positive Jurkat cells; CD3-expressing cells (Jurkat)
T3 sequence (P07766 23-207): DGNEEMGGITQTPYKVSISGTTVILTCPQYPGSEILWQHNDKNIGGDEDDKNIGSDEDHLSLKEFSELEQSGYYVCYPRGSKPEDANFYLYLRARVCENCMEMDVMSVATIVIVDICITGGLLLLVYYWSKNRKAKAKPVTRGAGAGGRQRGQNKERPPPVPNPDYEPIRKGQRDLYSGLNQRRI

HER3 (on tumor cells) [8] = target: T1, HER3 (on tumor cells); assay: flow cytometry on HER3-expressing SKBR-3 cells
HER3-His [9] = target: T4, HER3-His (UniProt P21860 21-643); assay: simultaneous binding, flow cytometry: molecule titrated on CD3-positive Jurkat cells, HER3-His 300 nM added, PE anti-His
T4 construct: range 21-643; also called His-tagged HER3; second antigen

HER3-Fc fusion protein [10] = target: T2, HER3-Fc fusion protein; assay: ELISA, coated HER3-Fc, anti-human Fab-HRP; remark: listed apart in the source
HER3-His [11] = target: T4, HER3-His; assay: simultaneous binding ELISA: coated EGFR-Fc, Db titrated, HER3-His 300 nM added, anti-His-HRP
EGFR-Fc fusion protein = target: T5, EGFR-Fc fusion protein (UniProt P00533 25-645); assay: ELISA, coated EGFR-Fc, anti-human Fab-HRP
T5 construct: range 25-645; Coated antigen in ELISA; not shown: Fc part of the fusion, not described

HER3 (on tumor cells) [12] = target: T1, HER3 (on tumor cells); assay: flow cytometry on HER3-positive MCF-7 cells
HER3-His [13] = target: T4, HER3-His; assay: simultaneous binding ELISA: coated EGFR-Fc, Db titrated, HER3-His 300 nM added, anti-His-HRP; remark: listed apart in the source
EGFR-His = target: T6, EGFR-His (UniProt P00533 25-645); assay: ELISA, coated His-tagged EGFR ECD, anti-human Fc-HRP
T6 construct: range 25-645; also called His-tagged EGFR

HER3-His [14] = target: T4, HER3-His; assay: ELISA, coated His-tagged HER3 ECD, anti-human Fc-HRP
HER3-His [15] = target: T4, HER3-His; assay: simultaneous binding ELISA: coated EGFR-Fc, Db titrated, HER3-His 300 nM added, anti-His-HRP; remark: listed apart in the source

B1: 3-43-IgG (antibody, V domains shown)
VH: QVQLQQSGPGLVKPSQTLSLTCAISGDSVSSNRAAWNWIRQSPSRGLEWLGRTYYRSKWYNDYAQSLKSRITINPDTPKNQFSLQLNSVTPEDTAVYYCARDGQLGLDALDIWGQGTMVTVSS
VL: QAGLTQPPAVSVAPGQTASITCGRDNIGSRSVHWYQQKPGQAPVLVVYDDSDRPAGIPERFSGSNYENTATLTISRVEAGDEADYYCQVWGITSDHVVFGGGTKLTVL
HER3 (on tumor cells) [1]
  EC50: 0.021 nM
HER3 (on tumor cells) [2]
  EC50: 0.022 nM
HER3 (on tumor cells) [3]
  EC50: 0.003 nM

B2: 3M6-IgG (antibody, V domains shown)
VH: EVQLLESGGGLVQPGGSLRLSCAASGFTFSHYVMAWVRQAPGKGLEWVSSISSSGGWTLYADSVKGRFTISRDNSKNTLYLQMNSLRAEDTAVYYCTRGLKMATIFDYWGQGTLVTVSS
VL: QSALTQPASVSGSPGQSITISCTGTSSDVGSYNVVSWYQQHPGKAPKLIIYEVSQRPSGVSNRFSGSKSGNTASLTISGLQTEDEADYYCSSYAGSSIFVIFGGGTKVTVL
HER3 (on tumor cells) [4]
  EC50: 0.44 nM
HER3 (on tumor cells) [5]
  EC50: 1.18 nM
HER3 (on tumor cells) [6]
  EC50: 7.5 nM
HER3-Fc fusion protein [7]
  EC50: 0.7 nM

B3: Db3-43xhuU3-EHD2-scFv3-43-Fckih (bispecific antibody)
light: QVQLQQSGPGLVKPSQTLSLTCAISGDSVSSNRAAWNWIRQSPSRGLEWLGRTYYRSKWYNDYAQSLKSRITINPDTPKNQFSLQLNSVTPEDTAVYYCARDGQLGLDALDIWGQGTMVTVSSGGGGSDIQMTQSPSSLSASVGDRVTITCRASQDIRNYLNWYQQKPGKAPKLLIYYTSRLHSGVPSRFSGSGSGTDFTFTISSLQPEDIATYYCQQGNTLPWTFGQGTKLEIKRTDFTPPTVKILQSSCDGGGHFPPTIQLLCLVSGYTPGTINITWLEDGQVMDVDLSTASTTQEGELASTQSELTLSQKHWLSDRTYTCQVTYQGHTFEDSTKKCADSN
heavy: QVQLVQSGAEVKKPGSSVKVSCKASGGTFSGYTMNWVRQAPGQGLEWMGLINPYKGVSTYNGKFKDRVTITADKSTSTAYMELSSLRSEDTAVYYCARSGYYGDSDWYFDVWGQGTLVTVSSGGGGSQAGLTQPPAVSVAPGQTASITCGRDNIGSRSVHWYQQKPGQAPVLVVYDDSDRPAGIPERFSGSNYENTATLTISRVEAGDEADYYCQVWGITSDHVVFGGGTKLTVLASDFTPPTVKILQSSCDGGGHFPPTIQLLCLVSGYTPGTINITWLEDGQVMDVDLSTASTTQEGELASTQSELTLSQKHWLSDRTYTCQVTYQGHTFEDSTKKCADSNDKTHTCPPCPAPPVAGPSVFLFPPKPKDTLMISRTPEVTCVVVDVSHEDPEVKFNWYVDGVEVHNAKTKPREEQYNSTYRVVSVLTVLHQDWLNGKEYKCKVSNKGLPSSIEKTISKAKGQPREPQVCTLPPSRDELTKNQVSLSCAVKGFYPSDIAVEWESNGQPENNYKTTPPVLDSDGSFFLVSKLTVDKSRWQQGNVFSCSVMHEALHNHYTQKSLSLSPGK
chain: QVQLQQSGPGLVKPSQTLSLTCAISGDSVSSNRAAWNWIRQSPSRGLEWLGRTYYRSKWYNDYAQSLKSRITINPDTPKNQFSLQLNSVTPEDTAVYYCARDGQLGLDALDIWGQGTMVTVSSGGGGSGGGGSGGGGSQAGLTQPPAVSVAPGQTASITCGRDNIGSRSVHWYQQKPGQAPVLVVYDDSDRPAGIPERFSGSNYENTATLTISRVEAGDEADYYCQVWGITSDHVVFGGGTKLTVLAAADKTHTCPPCPAPPVAGPSVFLFPPKPKDTLMISRTPEVTCVVVDVSHEDPEVKFNWYVDGVEVHNAKTKPREEQYNSTYRVVSVLTVLHQDWLNGKEYKCKVSNKGLPSSIEKTISKAKGQPREPQVYTLPPCRDELTKNQVSLWCLVKGFYPSDIAVEWESNGQPENNYKTTPPVLDSDGSFFLYSKLTVDKSRWQQGNVFSCSVMHEALHNHYTQKSLSLSPGK
notes: Three different polypeptides; also called bispecific, trivalent Diabody-scFv fusion protein targeting HER3 (3-43) and CD3 (huU3)
CD3 (on Jurkat cells)
  EC50: 8.1 nM
HER3 (on tumor cells) [8]
  EC50: 0.037 nM
HER3-His [9]
  EC50: 9 nM

B4: Db3-43xhu225-Ig (bispecific antibody, human IgG1, kappa)
heavy: EVQLVESGGGLVQPGGSLRLSCAASGFSLTNYGVHWVRQAPGKGLEWLGVIWSGGNTDYNTPFTSRFTISRDNSKNTLYLQMNSLRAEDTAVYYCARALTYYDYEFAYWGQGTTVTVSSGGGGSQAGLTQPPAVSVAPGQTASITCGRDNIGSRSVHWYQQKPGQAPVLVVYDDSDRPAGIPERFSGSNYENTATLTISRVEAGDEADYYCQVWGITSDHVVFGGGTKLTVLASTKGPSVFPLAPSSKSTSGGTAALGCLVKDYFPEPVTVSWNSGALTSGVHTFPAVLQSSGLYSLSSVVTVPSSSLGTQTYICNVNHKPSNTKVDKKVEPKSCDKTHTCPPCPAPPVAGPSVFLFPPKPKDTLMISRTPEVTCVVVDVSHEDPEVKFNWYVDGVEVHNAKTKPREEQYNSTYRVVSVLTVLHQDWLNGKEYKCKVSNKGLPSSIEKTISKAKGQPREPQVYTLPPSRDELTKNQVSLTCLVKGFYPSDIAVEWESNGQPENNYKTTPPVLDSDGSFFLYSKLTVDKSRWQQGNVFSCSVMHEALHNHYTQKSLSLSPGK
light: QVQLQQSGPGLVKPSQTLSLTCAISGDSVSSNRAAWNWIRQSPSRGLEWLGRTYYRSKWYNDYAQSLKSRITINPDTPKNQFSLQLNSVTPEDTAVYYCARDGQLGLDALDIWGQGTMVTVSSGGGGSDIQLTQSPSFLSASVGDRVTITCRASQSIGTNIHWYQQKPGKAPKLLIKYASESISGVPSRFSGSGSGTEFTLTISSLQPEDFATYYCQQNNNWPTTFGAGTKLEIKRTVAAPSVFIFPPSDEQLKSGTASVVCLLNNFYPREAKVQWKVDNALQSGNSQESVTEQDSKDSTYSLSSTLTLSKADYEKHKVYACEVTHQGLSSPVTKSFNRGEC
notes: also called bispecific, tetravalent Diabody-Ig targeting EGFR (hu225) and HER3 (3-43) using CH1 and CL; DbEGFRxHER3-Ig
HER3-Fc fusion protein [10]
  EC50: 0.34 nM
HER3-His [11]
  EC50: 0.85 nM
EGFR-Fc fusion protein
  EC50: 0.43 nM
HER3 (on tumor cells) [12]
  EC50: 0.054 nM

B5: Db3-43xhu225-MHD2-Fc (bispecific antibody)
heavy: EVQLVESGGGLVQPGGSLRLSCAASGFSLTNYGVHWVRQAPGKGLEWLGVIWSGGNTDYNTPFTSRFTISRDNSKNTLYLQMNSLRAEDTAVYYCARALTYYDYEFAYWGQGTTVTVSSGGGGSQAGLTQPPAVSVAPGQTASITCGRDNIGSRSVHWYQQKPGQAPVLVVYDDSDRPAGIPERFSGSNYENTATLTISRVEAGDEADYYCQVWGITSDHVVFGGGTKLTVLASAELPPKVSVFVPPRDGFFGNPRKSKLICQATGFSPRQIQVSWLREGKQVGSGVTTDQVQAEAKESGPTTYKVTSTLTIKESDWLGQSMFTCRVDHRGLTFQQNASSMCVPDDKTHTCPPCPAPPVAGPSVFLFPPKPKDTLMISRTPEVTCVVVDVSHEDPEVKFNWYVDGVEVHNAKTKPREEQYNSTYRVVSVLTVLHQDWLNGKEYKCKVSNKGLPSSIEKTISKAKGQPREPQVYTLPPSRDELTKNQVSLTCLVKGFYPSDIAVEWESNGQPENNYKTTPPVLDSDGSFFLYSKLTVDKSRWQQGNVFSCSVMHEALHNHYTQKSLSLSPGK
light: QVQLQQSGPGLVKPSQTLSLTCAISGDSVSSNRAAWNWIRQSPSRGLEWLGRTYYRSKWYNDYAQSLKSRITINPDTPKNQFSLQLNSVTPEDTAVYYCARDGQLGLDALDIWGQGTMVTVSSGGGGSDIQLTQSPSFLSASVGDRVTITCRASQSIGTNIHWYQQKPGKAPKLLIKYASESISGVPSRFSGSGSGTEFTLTISSLQPEDFATYYCQQNNNWPTTFGAGTKLEIKRTAELPPKVSVFVPPRDGFFGNPRKSKLICQATGFSPRQIQVSWLREGKQVGSGVTTDQVQAEAKESGPTTYKVTSTLTIKESDWLGQSMFTCRVDHRGLTFQQNASSMCVPD
notes: homodimeric Fc part
HER3-His [13]
  EC50: 1.8 nM
EGFR-His
  EC50: 0.23 nM
HER3-His [14]
  EC50: 0.34 nM
HER3-His [15]
  EC50: 1.9 nM
